Assay results from patent US10709762B2, “Use of M-CSF for preventing or treating myeloid cytopenia and related complications” (priority 2013, dated 2020).

Key:
[1] = test system: PU.1 in HSC of PU.1-GFP reporter mice; assay: PU.1-GFP reporter activation in HSC after in vivo injection (FACS)
Protocol: CD45.1 and C57Bl/6 mice were obtained from Charles River. PU.1-GFP^31 M-CSFR^−/−27 and PU.1^fl/fl 32 mice have been described. Age- and sex-matched CD45.1 recipients that were reconstituted as described^3 with CD45.2 foetal liver from wt or M-CSFR^−/− embryos^27 and PU.1^fl/fl or PU.1^fl/fl::MxCre bone marrow, were used to isolate CD150+CD34− KSLF HSC not earlier than 8 weeks after reconstitution. For in vivo injections the 10 μg/mouse M-CSF, 5 mg/kg LPS (055:B5 E. coli) or sorted cells were injected in 100 μl of PBS into the retro-orbital sinus. For HSC transplantation 400 CD150+CD34− KSLF HSC were sorted from CD45.2 mice and mixed with 100.000 Lin^+ Sca^− CD45.1 carrier cells prior to injection into sub-lethally irradiated (4.5 Gy) CD45.1 recipient mice. For competitive transplantations, 1300 CD150+, CD34-KSLF HSC were isolated 16 h after control or 10 μg M-CSF injection from actin-GFP CD45.2 mice^33, mixed with equal numbers of CD45.2 competitor HSC and injected with 300.000 Lin^+ Sca^− RC-lysed CD45.1 carrier cells into sub-lethally irradiated (4.5 Gy) CD45.1 recipients. Contribution to platelets, CD19+ B-cells and CD11b+ myeloid cells was analysed after 4 and 6 weeks in the blood from mice with at least 5% GFP+ donor cells. For PU.1 deletion PU.1^fl/fl or PU.1^fl/fl::MxCre reconstituted mice were intra-peritoneally injected with 5 μg/g Polyinosinic:polycytidylic acid 7 and 9 days prior to control (PBS) or 10 μg M-CSF injection. All mouse experiments were performed under specific pathogen-free conditions in accordance with institutional guidelines.
For FACS sorting and analysis we used described staining protocols^3 and published stem and progenitor cell definitions^34, FACSCANTO™ BD™ LSRII and FACSARIA™ III equipment and DIVA™ software (BECTON-DICKINSON), analysing only populations with at least 200 events. For HSC analysis we used antibodies anti-CD34-FITC (clone RAM34, BD BIOSCIENCES), anti-CD135-PE (clone A2F10.1, BD BIOSCIENCES), anti-CD150-Pe-Cy7 (clone TC15-12F12.2, BIOLEGEND), anti-CD117-APC H7 (clone 2B8, BD BIOSCIENCES), anti-Sca-1-Pe-Cy5 (clone D7, BIOLEGEND), anti-CD48-APC (clone HM48-1, BIOLEGEND). Diverging from this or in addition we used antibodies anti-CD34 Alexa 700 (clone RAM34, BD BIOSCIENCES), anti-CD16/32 PE (clone 2.4G2, BD BIOSCIENCES), anti-CD11b PE-CF594 (clone M1/70, BD BIOSCIENCES), anti-CD19PE-Cy7 (clone 1D3, BD biosciences), anti CD45.2 APC (clone 104, BD BIOSCIENCES) and anti CD45.1 Pacific Blue (clone A20, BD BIOSCIENCES) for progenitor and blood cell analysis. LIVE/DEAD Fixable Violet Dead cell dye (Invitrogen) was used as viability marker.

[2] = test system: endogenous PU.1 protein in single HSC; assay: Intra-splenic injection of CFSE-labelled HSC, PU.1 immunofluorescence; assay type: in vivo, mice; conditions: M-CSF receptor deficient HSC
Protocol: For analysis of HSC in vivo, 1500 to 7000 FACS sorted CD150^+ CD34^− KSLF HSC were stained 10 min at 37° C. with 3 μM CFSE (Invitrogen) in PBS/0.5% BSA, washed 3× in PBS/0.5% BSA and injected in 30 μl PBS (containing or not 1 μg of isotype control or AFS98 α-M-CSFR antibody^26 or 2 μM GW2580, 10 μM Ly29400, 10 μM PD98059 or 2 μM SU6656 inhibitors in 0.9% DMSO) into the spleen of anesthetized mice. After 24 h spleens were embedded in OCT (Tissue-Tek, Sakura) and frozen at −80° C. Cryostat sections (5 μm) were prepared from the entire organ, dried and fixed 10 min in 4% PFA/PBS at room temperature (RT) and every 10th section was further processed. After washes in PBS, slides were blocked for 1 hour at RT in PBS/2% BSA/1% Donkey serum/1% FCS/0.1% saponin, incubated for 36 h at 4° C. with anti-PU.1 polyclonal antibody (Santa Cruz) in PBS/0.05% saponin (1:50), washed and incubated with secondary Alexa 546-donkey-anti-rabbit antibody (Molecular probes) in PBS/0.05% saponin (1:500). All immunofluorescence samples were mounted with ProLong Gold DAPI antifade (Molecular probes) and analyzed by multifluorescent microscopy on a Zeiss Axioplan 2. All CFSE+ cells were analysed for PU.1 expression up to ≥30 or ≥50 cells as indicated. Cell counts and staining were verified by a second trained microscopist blinded to sample identity. […]

B1: M-CSF: recombinant murine macrophage colony stimulating factor from PeproTech, used in Example 1 (protein, UniProt P07141 33-552, looked up)
Macrophage colony-stimulating …: KEVSEHCSHMIGNGHLKVLQQLIDSQMETSCQIAFEFVDQEQLDDPVCYLKKAFFLVQDIIDETMRFKDNTPNANATERLQELSNNLNSCFTKDYEEQNKACVRTFHETPLQLLEKIKNFFNETKNLLEKDWNIFTKNCNNSFAKCSSRDVVTKPDCNCLYPKATPSSDPASASPHQPPAPSMAPLAGLAWDDSQRTEGSSLLPSELPLRIEDPGSAKQRPPRSTCQTLESTEQPNHGDRLTEDSQPHPSAGGPVPGVEDILESSLGTNWVLEEASGEASEGFLTQEAKFSPSTPVGGSIQAETDRPRALSASPFPKSTEDQKPVDITDRPLTEVNPMRPIGQTQNNTPEKTDGTSTLREDHQEPGSPHIATPNPQRVSNSATPVAQLLLPKSHSWGIVLPLGELEGKRSTRDRRSPAELEGGSASEGAARPVARFNSIPLTDTGHVEQHEGSSDPQIPESVFHLLVPGIILVLLTVGGLLFYKWKWRSHRDPQTLDSSVGRPEDSSLTQDEDRQVELPV
PU.1 activation in CD150hi HSC compared with total HSC ([1]; 16 h after injection): activated PU.1 to a similar extent | change in M-CSFR or MafB expression ([1]; HSC after M-CSF injection): no significant change | PU.1 activation in HSC ([1]; PU.1-GFP reporter mice, direct intravenous injection, after 16 h): significantly increased PU.1 activation | change in the proportion of CD150hi HSC ([1]; in GFP-positive or -negative HSC): no change | PU.1 activation in M-CSFR-/- HSC, M-CSF stimulated versus control recipients [2]: no higher activation of PU.1
